Reference: paper PMC12520364, “UBXN7 facilitates SARS-CoV-2 replication via inhibiting the K48-linked ubiquitination of viral N protein” (PLOS Pathogens, 2025)

B1: purified HA-UBXN7 (natural protein, UniProt O94888 1-489, looked up)
chain: MAAHGGSAASSALKGLIQQFTTITGASESVGKHMLEACNNNLEMAVTMFLDGGGIAEEPSTSSASVSTVRPHTEEEVRAPIPQKQEILVEPEPLFGAPKRRRPARSIFDGFRDFQTETIRQEQELRNGGAIDKKLTTLADLFRPPIDLMHKGSFETAKECGQMQNKWLMINIQNVQDFACQCLNRDVWSNEAVKNIIREHFIFWQVYHDSEEGQRYIQFYKLGDFPYVSILDPRTGQKLVEWHQLDVSSFLDQVTGFLGEHGQLDGLSSSPPKKCARSESLIDASEDSQLEAAIRASLQETHFDSTQTKQDSRSDEESESELFSGSEEFISVCGSDEEEEVENLAKSRKSPHKDLGHRKEENRRPLTEPPVRTDPGTATNHQGLPAVDSEILEMPPEKADGVVEGIDVNGPKAQLMLRYPDGKREQITLPEQAKLLALVKHVQSKGYPNERFELLTNFPRRKLSHLDYDITLQEAGLCPQETVFVQERN
notes: May be the same construct as m1 (pCAGGS-HA); source: purified
B2: Purified recombinant UBXN7-his protein (natural protein, UniProt O94888 1-489, looked up)
chain: B1 chain
notes: The host of UBXN7-his is therefore told in two ways; also called His-tagged UBXN7; source: HEK293F, transfected, purified (Ni-NTA, Superdex200)

Key:
[1] = target: T1, Purified recombinant His-N protein from E. coli (SARS-CoV-2, UniProt P0DTC9 1-419); assay: pull-down; conditions: both partners purified
T1 construct: SARS-CoV-2 N protein, full-length N gene of NC_045512.2 in pET-28a(+); also called prokaryotic recombinant SARS-CoV-2 N protein; not shown: 6xHis, N-terminal, kept

[2] = target: T2, Fc-tagged SARS-CoV-2 N protein (SARS-CoV-2, UniProt P0DTC9 1-419); assay: pull-down; conditions: both partners purified
T2 construct: also called N-Fc; SARS-CoV-2 N-Fc

Row | Binder | binding result [1] | binding result [2]
1 | B1 | binds | –
2 | B2 | – | binds
